The values that follow come from US11795460B2, “Compositions and methods for TTR gene editing and treating ATTR amyloidosis” (Intellia Therapeutics, Inc., priority 2017, dated 2023).

For one data set, the system named is human TTR protein. Nature of the data set: Human TTR protein ELISA in serum and cerebrospinal fluid of V30M mice. The format is in vivo, mouse. The conditions noted are these: V30M humanized mice, single 1 mg/kg dose, 8 weeks post treatment. How it is done:
(§1) A well-established humanized transgenic mouse model of hereditary ATTR amyloidosis that expresses the V30M pathogenic mutant form of human TTR protein was used in this Example. This mouse model recapitulates the TTR deposition phenotype in tissues observed in ATTR patients, including within the peripheral nervous system and gastrointestinal (GI) tract (See Santos et al., Neurobiol Aging. 2010 February; 31(2):280-9).
(§2) Mice (aged approximately 4-5 months) were dosed with LNP formulations prepared using the cross-flow and TFF procedures as described in Example 1. The LNPs were formulated with an N:P ratio of 6.0 and contained Lipid A, Cholesterol, DSPC, and PEG2k-DMG in a 50:38:9:2 molar ratio, respectively. The LNPs contained Cas9 mRNA (SEQ ID NO: 1) and either G000481 (“G481”) or a non-targeting control guide G000395 (“G395”; SEQ ID NO: 273), in a 1:1 ratio of gRNA:mRNA by weight.
(§3) Mice were injected via the lateral tail vein as described in Example 1 with a single 1 mg/kg (of total RNA content) dose of LNP with an n=10/group. […] Human TTR protein levels were measured in serum and cerebrospinal fluid (CSF) by ELISA as previously described by Butler et al., Amyloid. […] Other tissues (stomach, colon, sciatic nerve, dorsal root ganglion (DRG)) were collected and processed for semi-quantitative immunohistochemistry as previously described by Gonsalves et al., Amyloid. […]

Another data set deals with HuTTR V30M locus. Nature of the data set: Liver editing in humanized transgenic V30M mouse model of hereditary ATTR amyloidosis. Type of data set: in vivo. The conditions noted are these: V30M humanized mice, single 1 mg/kg dose of LNP. How it is done: (§4) Unless otherwise noted, CD-1 female mice, ranging from 6-10 weeks of age were used in each study. Animals were weighed and grouped according to body weight for preparing dosing solutions based on group average weight. LNPs were dosed via the lateral tail vein in a volume of 0.2 mL per animal (approximately 10 mL per kilogram body weight). […] Body weight was measured at twenty-four hours post-administration, and animals were euthanized at various time points by exsanguination via cardiac puncture under isoflourane anesthesia. Blood was collected into serum separator tubes or into tubes containing buffered sodium citrate for plasma as described herein. […]
(§5) To quantitatively determine the efficiency of editing at the target location in the genome, sequencing was utilized to identify the presence of insertions and deletions introduced by gene editing. […]
(§6) Additional PCR was performed per the manufacturer's protocols (Illumina) to add chemistry for sequencing. […] The reads were aligned to a reference genome (e.g., the human reference genome (hg38), the cynomologus reference genome (mf5), the rat reference genome (rn6), or the mouse reference genome (mm10)) after eliminating those having low quality scores. […]

Data set [1] relates to TTR protein amyloid deposition. Nature of the data set: Semi-quantitative immunohistochemistry of TTR in stomach, colon, sciatic nerve, DRG of V30M mice. Type of data set: in vivo, mouse. To be noted: 8 weeks post-treatment, single 1 mg/kg dose. How it is done: as §1, §2, §3
A further data set concerns murine TTR. Description: Liver editing in mice with murine TTR dosed with LNP formulations (Table 29). Type of data set: in vivo, mouse. To be noted: wild type CD-1 mice; 1, 0.3, 0.1, 0.03, or 0.01 mg/kg; FIG. 15A. How it is done: as §4, §5, §6

Strand notation (5' to 3'): a small letter for the sugar, then the base; units joined by * are phosphorothioate-linked, units joined directly phosphodiester-linked; [ ] holds rarer units or linkages, { } end groups; capitals alone tell only the bases. m = 2'-O-methyl; r = 2'-OH (RNA)

B1: G000481: TTR sgRNA modified sequence, Human, SEQ ID No. 88; guide sequence of CR003345 (nucleic acid)
guide: mU*mC*mU*rArGrArArCrUrUrUrGrArCrCrArUrCrArGrGrUrUrUrUrArGrAmGmCmUmAmGmAmAmAmUmAmGmCrArArGrUrUrArArArArUrArArGrGrCrUrArGrUrCrCrGrUrUrArUrCrAmAmCmUmUmGmAmAmAmAmAmGmUmGmGmCmAmCmCmGmAmGmUmCmGmGmUmGmCmU*mU*mU*mU
Consider B1, for which the “TTR protein levels in CSF” value with human TTR protein was “not in CSF”. For the same molecule, in the data set with human TTR protein (p<0.001), the “Knockdown of TTR plasma levels” value is “greater than 99%”. The “Editing of TTR in livers” value in the data set with HuTTR V30M locus (8 weeks post treatment) came out at 49.4%. Besides, the “Share of editing events that were insertions” value in the data set with HuTTR V30M locus (remainder deletions) was 96.8%. For the same molecule, in data set [1], the “Reduction in TTR staining across the treated tissues” value was not below 85%.

B2: G000502: TTR Cyno specific sgRNA modified sequence, SEQ ID No. 114; guide sequence of CR000689; cross homologous between mouse and cyno (nucleic acid)
guide: mA*mC*mA*rCrArArArUrArCrCrArGrUrCrCrArGrCrGrGrUrUrUrUrArGrAmGmCmUmAmGmAmAmAmUmAmGmCrArArGrUrUrArArArArUrArArGrGrCrUrArGrUrCrCrGrUrUrArUrCrAmAmCmUmUmGmAmAmAmAmAmGmUmGmGmCmAmCmCmGmAmGmUmCmGmGmUmGmCmU*mU*mU*mU
B2: in the data set on murine TTR, the “Liver editing, dose response” value was “A dose response for both editing and serum TTR levels was evident”.
